Experimental findings from US20030181369A1 (published 2003) are described below.

This assay concerns the target T1, T7-epitope tagged bovine β1 integrin (bovine, UniProt P53712 21-798).
T1 construct: mature; Expressed in HEK293 cells and detected in lysates with anti-T7 antibody; also called T7-β1 integrin; T7 tagged β1; not shown: le
Kind of assay: co-immunoprecipitation with anti-HSV antibody, anti-T7 Western blot (FIG. 5B panel c). How it is done: 16K derivatives were cotransfected with T7 tagged β1 integrin into HEK293 cells. Integrin expression was assessed by Western blot analysis of RIPA lysates probed with anti-T7 antibody (panel a), and glycosylation by GlcNAc-TV was assessed by incubating extracts with agarose-conjugated L-PHA and analysing recovered proteins with anti-T7 antibody (panel b). Proteins interacting with 16K or 16K mutants were isolated by immunoprecipitation using anti-HSV antibody followed by agarose conjugated protein A, and recovery of T7-β1 integrin monitored by Western blot analysis using anti-T7 antibody (panel c).
RIPA lysates made from HEK293 cells transiently transfected with pXJ41-T7-β1 were resolved on 8% SDS-PAGE, transferred to nitrocellulose, and probed with anti-T7 antibody. Alternatively, lysates were treated with endoglycosidase H (2 units) or glycopeptidase F and incubated at 37° C. overnight in the manufacturer's (Calbiochem) recommended buffers. Agarose conjugated L-PHA and ConA were used to isolate β1-6 branched and high mannose forms of β1 integrin respectively. Lysates made from cells co-transfected with HSV tagged 16K were treated with anti-HSV antibody and agarose-conjugated protein A and recovered complexes were analysed by Western blot as above. […]

T1 sequence (P53712 21-798): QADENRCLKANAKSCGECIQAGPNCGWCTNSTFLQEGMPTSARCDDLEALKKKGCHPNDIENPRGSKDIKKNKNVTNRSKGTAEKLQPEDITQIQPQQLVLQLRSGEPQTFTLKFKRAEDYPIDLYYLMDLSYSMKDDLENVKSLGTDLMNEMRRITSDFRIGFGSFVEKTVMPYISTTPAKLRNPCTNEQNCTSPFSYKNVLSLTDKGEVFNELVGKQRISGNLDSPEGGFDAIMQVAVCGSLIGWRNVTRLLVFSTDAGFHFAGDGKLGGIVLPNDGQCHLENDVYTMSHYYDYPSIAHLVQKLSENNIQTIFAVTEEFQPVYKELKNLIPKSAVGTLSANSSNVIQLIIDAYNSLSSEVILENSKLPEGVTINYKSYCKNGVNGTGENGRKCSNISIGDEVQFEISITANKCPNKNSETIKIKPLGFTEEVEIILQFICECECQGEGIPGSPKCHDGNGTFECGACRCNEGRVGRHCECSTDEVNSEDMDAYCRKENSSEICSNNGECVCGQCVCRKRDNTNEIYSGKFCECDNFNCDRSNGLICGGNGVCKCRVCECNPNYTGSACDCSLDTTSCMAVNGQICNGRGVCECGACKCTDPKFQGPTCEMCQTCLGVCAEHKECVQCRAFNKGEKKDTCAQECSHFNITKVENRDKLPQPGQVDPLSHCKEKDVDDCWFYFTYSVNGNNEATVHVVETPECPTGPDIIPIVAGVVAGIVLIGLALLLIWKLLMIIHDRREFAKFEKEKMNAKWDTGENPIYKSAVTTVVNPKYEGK

B1: HSV-tagged 16K derivative α4 (helix 4, amino acids 111-156) (other, not shown: small tags and cut ends)
chain: GIVGDAGVRGTAQQPRLFVGMILILIFAEVLGLYGLIVALILSTK
In the case of B1, the binding result is “no binding”.

B2: HSV-tagged 16K derivative α2 (helix 2, amino acids 35-88) (other, not shown: small tags and cut ends)
chain: AKSGTGIAAMSVMRPEQIMKSIIPVVMAGIIAIYGLVVAVLIANSLNDDISLYK
As to B2, the binding result is “no binding”.
